The source of these data is publication PMC11293385 (Genes & Development, 2024).

The labels stand for the following.
B2: His-tagged IκBζ(404–718) (domain or fragment, human, UniProt Q9BYH8 404-718, looked up)
chain: MGNPMNTTQLGKSLFQWQVEQEESKLANISQDQFLSKDADGDTFLHIAVAQGRRALSYVLARKMNALHMLDIKEHNGQSAFQVAVAANQHLIVQDLVNIGAQVNTTDCWGRTPLHVCAEKGHSQVLQAIQKGAVGSNQFVDLEATNYDGLTPLHCAVIAHNAVVHELQRNQQPHSPEVQELLLKNKSLVDTIKCLIQMGAAVEAKDRKSGRTALHLAAEEANLELIRLFLELPSCLSFVNAKAYNGNTALHVAASLQYRLTQLDAVRLLMRKGADPSTRNLENEQPVHLVPDGPVGEQIRRILKGKSIQQRAPPY

The target in data set [1] is p50(1–376):RelA(1–325) heterodimer (murine, UniProt P25799 1-376; Q04207 1-325). The experiment in a line: native gel or EMSA. A general note: Mobility shift assays separate free from complexed probe on a gel.
Sequence of p50(1–376):RelA(1–325) heterodimer (Q04207 1-325, one chain of several): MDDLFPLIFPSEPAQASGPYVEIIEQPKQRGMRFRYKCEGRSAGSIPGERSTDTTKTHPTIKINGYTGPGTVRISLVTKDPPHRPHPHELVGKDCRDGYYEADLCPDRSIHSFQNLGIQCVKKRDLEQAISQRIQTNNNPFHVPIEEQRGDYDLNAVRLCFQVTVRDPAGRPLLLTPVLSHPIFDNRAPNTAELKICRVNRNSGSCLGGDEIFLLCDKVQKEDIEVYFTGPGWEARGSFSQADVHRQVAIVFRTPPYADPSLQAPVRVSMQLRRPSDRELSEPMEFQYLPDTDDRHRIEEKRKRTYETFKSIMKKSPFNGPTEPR
For the next data set, the target named is T1, p50(1–376) homodimer (murine, UniProt P25799 1-376).
T1 sequence (looked up): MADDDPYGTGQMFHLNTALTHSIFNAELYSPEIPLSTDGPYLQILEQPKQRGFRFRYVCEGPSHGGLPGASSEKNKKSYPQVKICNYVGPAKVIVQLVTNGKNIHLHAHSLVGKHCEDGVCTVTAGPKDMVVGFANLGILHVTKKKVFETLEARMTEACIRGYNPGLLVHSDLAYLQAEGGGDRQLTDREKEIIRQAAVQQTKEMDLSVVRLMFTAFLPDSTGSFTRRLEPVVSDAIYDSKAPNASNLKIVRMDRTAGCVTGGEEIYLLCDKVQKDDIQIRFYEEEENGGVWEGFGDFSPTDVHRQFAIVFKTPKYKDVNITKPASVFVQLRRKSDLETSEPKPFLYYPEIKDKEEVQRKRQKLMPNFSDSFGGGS
The experiment in a line: native gel or EMSA.

Another data set deals with T2, p50(1–435) homodimer (murine, UniProt P25799 1-435).
T2 sequence (looked up): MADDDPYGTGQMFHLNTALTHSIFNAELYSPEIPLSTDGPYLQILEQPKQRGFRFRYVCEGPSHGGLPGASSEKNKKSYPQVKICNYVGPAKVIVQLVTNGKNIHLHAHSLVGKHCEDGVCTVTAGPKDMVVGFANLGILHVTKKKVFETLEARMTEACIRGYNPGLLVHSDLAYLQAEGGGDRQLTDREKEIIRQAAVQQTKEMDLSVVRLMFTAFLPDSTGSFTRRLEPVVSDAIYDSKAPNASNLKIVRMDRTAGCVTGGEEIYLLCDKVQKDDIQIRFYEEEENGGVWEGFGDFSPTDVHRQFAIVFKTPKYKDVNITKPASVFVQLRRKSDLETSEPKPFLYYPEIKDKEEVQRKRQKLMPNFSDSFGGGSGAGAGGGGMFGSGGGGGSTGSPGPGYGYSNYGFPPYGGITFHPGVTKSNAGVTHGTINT
As to the kind of experiment: SPR. Background: Surface plasmon resonance follows binding to a sensor surface in real time, without labels.

The next data set has as its target T3, p50(39–363) homodimer (murine, UniProt P25799 39-363).
T3 sequence (looked up): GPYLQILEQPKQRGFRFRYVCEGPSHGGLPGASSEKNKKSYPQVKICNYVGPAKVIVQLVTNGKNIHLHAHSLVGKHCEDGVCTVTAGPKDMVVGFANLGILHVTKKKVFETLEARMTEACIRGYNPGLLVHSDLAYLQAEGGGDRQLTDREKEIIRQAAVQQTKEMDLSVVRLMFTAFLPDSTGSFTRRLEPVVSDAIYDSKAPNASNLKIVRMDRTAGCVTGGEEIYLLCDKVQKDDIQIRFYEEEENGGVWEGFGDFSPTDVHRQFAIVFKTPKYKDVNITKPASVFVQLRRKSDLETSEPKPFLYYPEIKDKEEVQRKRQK
The experiment in a line: SPR.

Data set [2] deals with NF-kB p50;GST-IkBzeta ankyrin repeat domain (Mus musculus;Homo sapiens, UniProt P25799;Q9BYH8 1-376;404-718, |). The experiment in a line: EMSA supershift.
The target in the data set “His-tagged IκBζ(404–718)” is B2. As to the kind of experiment: SPR.
The data set “crystal structure” concerns the molecule itself. As to the kind of experiment: crystal structure.

What is called Kd is the concentration at which binding is half-saturated. High values mean weaker binding, low ones tighter binding.

B1: GST-IκBζ(404–718) (domain or fragment, human, UniProt Q9BYH8 404-718, looked up)
chain: MGNPMNTTQLGKSLFQWQVEQEESKLANISQDQFLSKDADGDTFLHIAVAQGRRALSYVLARKMNALHMLDIKEHNGQSAFQVAVAANQHLIVQDLVNIGAQVNTTDCWGRTPLHVCAEKGHSQVLQAIQKGAVGSNQFVDLEATNYDGLTPLHCAVIAHNAVVHELQRNQQPHSPEVQELLLKNKSLVDTIKCLIQMGAAVEAKDRKSGRTALHLAAEEANLELIRLFLELPSCLSFVNAKAYNGNTALHVAASLQYRLTQLDAVRLLMRKGADPSTRNLENEQPVHLVPDGPVGEQIRRILKGKSIQQRAPPY
B1: the binding result (in data set [1]; in the data set with p50(1–376) homodimer) was “binds” each time. For B2, the binding result in the data set with p50(1–435) homodimer and with p50(39–363) homodimer was “binds” in each case.

B3: human IL-6 kB DNA probe (dsDNA)
DNA 1: AGATTTATCAAATGTGGGATTTTCCCATGAGTCTCAATATT
DNA 2: AATATTGAGACTCATGGGAAAATCCCACATTTGATAAATCT
For B3, the binding result in data set [2] is “binds”.

B4: RelA(191–290)–p50(350–376) chimeric fusion protein (other, murine, UniProt Q04207 191-290, looked up)
chain: TAELKICRVNRNSGSCLGGDEIFLLCDKVQKEDIEVYFTGPGWEARGSFSQADVHRQVAIVFRTPPYADPSLQAPVRVSMQLRRPSDRELSEPMEFQYLPEIKDKEEVQRKRQKLMPNFSDSFGGGS
Molecule B4 had an equilibrium dissociation constant (Kd) with His-tagged IκBζ(404–718) of 615 pM. This counts as sub-nanomolar.

B5: murine p50 dimerization domain homodimer (residues 245–376) (domain or fragment, UniProt P25799 245-376, looked up)
chain: ASNLKIVRMDRTAGCVTGGEEIYLLCDKVQKDDIQIRFYEEEENGGVWEGFGDFSPTDVHRQFAIVFKTPKYKDVNITKPASVFVQLRRKSDLETSEPKPFLYYPEIKDKEEVQRKRQKLMPNFSDSFGGGS
For B5, the Kd with His-tagged IκBζ(404–718) came out at 91.2 pM. Also, the binding result in “crystal structure” is on record as “binds”.
